In US20080214408A1 one finds Cy5 Signal Intensity (Background subtracted) (arbitrary units) and Cy3 Signal Intensity (Background subtracted) (arbitrary units) data, which are given here for one substance.

Assay [1] deals with GFP-Tus-His6 fusion protein (E. coli) (UniProt P16525). Description: protein microarray, fluorescence; fusion protein made in situ and held on plasmid with mutant Ter site (SEQ ID NO: 12), detected with Cy5-labeled anti-his antibody.
Assay [2] has the same target. Description: protein microarray, fluorescence; fusion protein made in situ and held on plasmid with wild-type Ter site, detected with Cy3-labeled anti-his antibody.
Assay [3] has the same target. Nature of the assay: protein microarray, fluorescence; fusion protein made in situ and held on plasmid with wild-type Ter site, detected with Cy5-labeled anti-his antibody.
Assay [4] shares this target. Nature of the assay: protein microarray, fluorescence; fusion protein made in situ and held on plasmid with mutant Ter site (SEQ ID NO: 12), detected with Cy3-labeled anti-his antibody.

Take “monoclonal antibody to the poly-his tag (Sigma-Aldrich), labeled with Cy3 or Cy5”: the Cy5 Signal Intensity (Background subtracted) (arbitrary units) is 4740 in assay [1] and 14000 in assay [3]. The Cy3 Signal Intensity (Background subtracted) (arbitrary units) in assay [2] was 20600; in assay [4] it was 10900.
